From US20170247434A1 (DEUTSCHES KREBSFORSCHUNGSZENTRUM, published 2017)

Columns and labels:
[1] = biological target: T1, Norovirus GI.1 Norwalk virus virus-like particles (VLPs) (Norovirus GI.1 Norwalk virus, UniProt Q83884 1-530); assay: direct ELISA; plates coated with VLPs; His-tagged nanobody serially diluted from ˜10 µM; anti-His HRP
T1 construct: also called GI.1 VLPs; the member of genogroup I included in this study
T1 sequence: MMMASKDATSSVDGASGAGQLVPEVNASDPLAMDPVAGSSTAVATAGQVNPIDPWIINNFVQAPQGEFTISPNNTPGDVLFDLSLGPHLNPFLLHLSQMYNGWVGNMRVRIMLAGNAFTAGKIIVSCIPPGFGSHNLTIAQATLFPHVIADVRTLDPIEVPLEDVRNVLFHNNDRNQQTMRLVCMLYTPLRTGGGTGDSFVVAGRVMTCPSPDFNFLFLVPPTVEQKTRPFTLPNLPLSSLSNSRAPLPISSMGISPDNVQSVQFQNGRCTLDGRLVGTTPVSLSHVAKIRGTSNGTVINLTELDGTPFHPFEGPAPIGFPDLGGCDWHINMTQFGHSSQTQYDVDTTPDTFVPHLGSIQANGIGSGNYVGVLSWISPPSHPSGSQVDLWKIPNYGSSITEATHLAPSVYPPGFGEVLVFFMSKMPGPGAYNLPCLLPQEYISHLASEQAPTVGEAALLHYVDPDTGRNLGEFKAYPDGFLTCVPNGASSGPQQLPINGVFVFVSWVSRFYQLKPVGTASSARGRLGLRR

[2] = biological target: T2, Norovirus GII.12 Hiro virus-like particles (VLPs) (Norovirus GII.12 Hiro); assay: direct ELISA; plates coated with 2 µg/ml VLPs; His-tagged nanobody serially diluted from ˜10 µM; anti-His HRP
T2 construct: also called GII.12 VLPs

[3] = biological target: T3, Norovirus GII.4 NSW-2012 virus-like particles (VLPs) (Norovirus GII.4 NSW-2012, UniProt P54635 1-538); assay: as above
T3 construct: also called GII.4 VLPs; GII.4 (NSW-2012) VLPs
T3 chain: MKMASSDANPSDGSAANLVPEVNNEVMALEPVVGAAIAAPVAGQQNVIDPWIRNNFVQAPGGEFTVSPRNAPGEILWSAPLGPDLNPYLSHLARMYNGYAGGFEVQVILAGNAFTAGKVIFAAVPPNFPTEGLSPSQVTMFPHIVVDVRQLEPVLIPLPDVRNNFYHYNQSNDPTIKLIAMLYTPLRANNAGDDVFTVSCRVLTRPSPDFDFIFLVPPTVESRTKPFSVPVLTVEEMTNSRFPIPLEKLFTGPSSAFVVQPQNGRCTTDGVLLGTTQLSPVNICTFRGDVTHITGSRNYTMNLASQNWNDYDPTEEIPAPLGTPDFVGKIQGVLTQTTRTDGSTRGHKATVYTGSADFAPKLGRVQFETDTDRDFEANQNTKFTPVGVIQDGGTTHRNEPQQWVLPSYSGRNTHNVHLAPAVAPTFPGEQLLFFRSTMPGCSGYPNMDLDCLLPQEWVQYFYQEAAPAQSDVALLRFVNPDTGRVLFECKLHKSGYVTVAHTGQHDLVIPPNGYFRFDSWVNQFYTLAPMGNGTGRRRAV

[4] = biological target: T4, Norovirus GII.10 Vietnam026 virus-like particles (VLPs) (Norovirus GII.10 Vietnam026); assay: direct ELISA; plates coated with 2 µg/ml VLPs; His-tagged nanobody serially diluted from ˜10 µM; anti-His HRP; detection limit OD 0.15
T4 construct: also called GII.10 VLPs; GII.10 norovirus virus-like particles
T4 chain: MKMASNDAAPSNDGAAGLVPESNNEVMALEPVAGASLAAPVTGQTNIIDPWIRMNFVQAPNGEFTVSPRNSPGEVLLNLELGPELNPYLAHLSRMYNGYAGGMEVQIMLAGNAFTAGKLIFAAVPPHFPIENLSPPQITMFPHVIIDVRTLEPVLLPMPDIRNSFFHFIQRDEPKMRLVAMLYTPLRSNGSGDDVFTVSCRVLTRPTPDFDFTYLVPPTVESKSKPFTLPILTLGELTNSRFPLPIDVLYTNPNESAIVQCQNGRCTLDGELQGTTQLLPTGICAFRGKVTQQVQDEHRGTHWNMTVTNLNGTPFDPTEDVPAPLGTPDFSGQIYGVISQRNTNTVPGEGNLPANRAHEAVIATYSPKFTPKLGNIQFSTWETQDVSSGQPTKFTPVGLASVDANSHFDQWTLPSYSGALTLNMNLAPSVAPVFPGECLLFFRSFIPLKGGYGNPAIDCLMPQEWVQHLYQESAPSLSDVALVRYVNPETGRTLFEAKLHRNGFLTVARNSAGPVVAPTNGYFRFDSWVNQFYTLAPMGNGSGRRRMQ

[5] = biological target: T5, P domain of norovirus GII.10 (Vietnam026) (Norovirus GII.10 Vietnam026); assay: direct ELISA; plates coated with 7 µg/ml GII.10 P domain; His-tagged nanobody serially diluted from ˜10 µM; anti-His HRP
T5 construct: domain: P domain; also called GII.10 P domain; GII.10 P domains

[6] = biological target: T4, Norovirus GII.10 Vietnam026 virus-like …
[7] = biological target: T3, Norovirus GII.4 NSW-2012 virus-like …

B1: Nano-85 (VHH)
VHH: DVQLVESGGGLVQPGGSLRLSCAASGSIFSIYAMGWYRQAPGKQRELVASISSGGGTNYADSVKGRFTISGDNAKNTVYLQMNSLKPEDTAVYYCKREDYSAYAPPSGSRGRGTQVTVSS
notes: also called the Nanobody; single-domain antibody (VHH) of the invention
dilution at which VLPs were detected [1]: 4000 fold dilution
dilution at which VLPs were detected [2]: 32000 fold dilution
dilution at which VLPs were detected [3]: 32000 fold dilution
dilution at which VLPs were detected [4]: 64000 fold dilution
dilution at which P domains were detected [5]: 17800 fold dilution
IC50 [6]: < 10 µg/mL
IC50 [7]: < 10 µg/mL
